The assay deals with cynomolgus PD-1 expressed on cells (cynomolgus monkey) (UniProt B0LAJ3). The experiment in a line: flow cytometry, CHO-S Cyno-PD-1. On the technique in general: Flow cytometry measures light scatter and fluorescence of single cells or particles in a stream.

Here are results for seven molecules from patent EP4491631A1.

Chain of cynomolgus PD-1 expressed on cells (cynomolgus monkey) (B0LAJ3 entry or part of it limits assumed): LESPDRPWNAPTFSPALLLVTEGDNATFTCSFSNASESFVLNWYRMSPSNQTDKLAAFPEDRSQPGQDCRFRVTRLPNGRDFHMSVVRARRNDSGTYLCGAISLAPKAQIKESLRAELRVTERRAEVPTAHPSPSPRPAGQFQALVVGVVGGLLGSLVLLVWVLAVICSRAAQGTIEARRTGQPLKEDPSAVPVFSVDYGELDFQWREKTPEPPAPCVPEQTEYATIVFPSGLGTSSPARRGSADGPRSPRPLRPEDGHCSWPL

B1: z2-XVT458 (antibody, IgG1, V domains shown)
VH: QVQLVQSGAEVKKPGASVKVSCKASGYTFTNFYIHWVRQAPGQGLEWMGSIYPNYGDTAYNQKFKDRVTMTVDTSTSTAYMELRSLRSDDTAVYYCARGYSYAMDYWGQGTTVTVSS
VL: DIQMTQSPSSVSASVGDRVTITCSASQGISGDLNWYQQKPGKAPKLLIYHTSSLHSGVPSRFSGSGSGTDFTLTISSLQPEDFATYYCQYYSKDLLTFGGGTKLEIK
Consider B1, for which the Max MFI came to 109 MFI.

B2: XVT458-z2-m6 (antibody, V domains shown)
VH: QVQLVQSGAEVKKPGASVKVSCKASGYTFTNFYIHWVRQAPGQGLEWMGSIYPNYGITAYNQKFKDRVTMTVDTSTSTAYMELRSLRSDDTAVYYCARGYSYAMDYWGQGTTVTVSS
VL: DIQMTQSPSSVSASVGDRVTITCSASQGISGDLNWYQQKPGKAPKLLIYHTSQLHSDVPSRFSGSGSGTDFTLTISSLQPEDFATYYCQGYSKDLLTFGGGTKLEIK
As for B2, the Max MFI stood at 59 MFI.

B3: XVT458-z2-m2 (antibody, V domains shown)
VH: QVQLVQSGAEVKKPGASVKVSCKASGYTFTNFYIHWVRQAPGQGLEWMGRIYPNYGFTAYNQKFKDRVTMTVDTSTSTAYMELRSLRSDDTAVYYCARGYSYAMDYWGQGTTVTVSS
VL: DIQMTQSPSSVSASVGDRVTITCSASQGIYGDLNWYQQKPGKAPKLLIYHTSSLHSGVPSRFSGSGSGTDFTLTISSLQPEDFATYYCQAYSKDLLTFGGGTKLEIK
B3: the Max MFI was 367 MFI.

B4: XVT458-z2-m5 (antibody, V domains shown)
VH: QVQLVQSGAEVKKPGASVKVSCKASGYTFTNFYIHWVRQAPGQGLEWMGRIYPNYGITAYNQKFKDRVTMTVDTSTSTAYMELRSLRSDDTAVYYCARGYSYAMDYWGQGTTVTVSS
VL: DIQMTQSPSSVSASVGDRVTITCSASQGIYGDLNWYQQKPGKAPKLLIYHTSSRHSGVPSRFSGSGSGTDFTLTISSLQPEDFATYYCQAYSKDLLTFGGGTKLEIK
B4 returned a Max MFI of 335 MFI.

B5: XVT458-z2-m4 (antibody, V domains shown)
VH: QVQLVQSGAEVKKPGASVKVSCKASGYTFTNFYIHWVRQAPGQGLEWMGRIYPNYGITAYNQKFKDRVTMTVDTSTSTAYMELRSLRSDDTAVYYCARGYSYAMDYWGQGTTVTVSS
VL: DIQMTQSPSSVSASVGDRVTITCSASQGISGDLNWYQQKPGKAPKLLIYHTSSRHSGVPSRFSGSGSGTDFTLTISSLQPEDFATYYCQGYSKDLLTFGGGTKLEIK
B5 displayed a Max MFI of 258 MFI.

B6: XVT458-z2-m3 (antibody, V domains shown)
VH: QVQLVQSGAEVKKPGASVKVSCKASGYTFTNFYIHWVRQAPGQGLEWMGRIYPNYGITAYNQKFKDRVTMTVDTSTSTAYMELRSLRSDDTAVYYCARGYSYAMDYWGQGTTVTVSS
VL: DIQMTQSPSSVSASVGDRVTITCSASQGISGDLNWYQQKPGKAPKLLIYHTSQRHSDVPSRFSGSGSGTDFTLTISSLQPEDFATYYCQGYSKDLLTFGGGTKLEIK
As for B6, the Max MFI worked out at 124 MFI.

B7: XVT458-z2-m1 (antibody, V domains shown)
VH: QVQLVQSGAEVKKPGASVKVSCKASGYTFTNFYIHWVRQAPGQGLEWMGSIYPNYGFTAYNQKFKDRVTMTVDTSTSTAYMELRSLRSDDTAVYYCARGYSYAMDYWGQGTTVTVSS
VL: DIQMTQSPSSVSASVGDRVTITCSASQGIWGDLNWYQQKPGKAPKLLIYHTSQLHSDVPSRFSGSGSGTDFTLTISSLQPEDFATYYCQGYSKDLLTFGGGTKLEIK
Turning to B7, the Max MFI was 70 MFI.
